Measured values published in article PMC4484599.

Target: Sp-1 human recombinant protein (Promega) (Homo sapiens, UniProt P08047 1-785)
Assay: EMSA

Chain of Sp-1 human recombinant protein (Promega) (P08047 whole entry): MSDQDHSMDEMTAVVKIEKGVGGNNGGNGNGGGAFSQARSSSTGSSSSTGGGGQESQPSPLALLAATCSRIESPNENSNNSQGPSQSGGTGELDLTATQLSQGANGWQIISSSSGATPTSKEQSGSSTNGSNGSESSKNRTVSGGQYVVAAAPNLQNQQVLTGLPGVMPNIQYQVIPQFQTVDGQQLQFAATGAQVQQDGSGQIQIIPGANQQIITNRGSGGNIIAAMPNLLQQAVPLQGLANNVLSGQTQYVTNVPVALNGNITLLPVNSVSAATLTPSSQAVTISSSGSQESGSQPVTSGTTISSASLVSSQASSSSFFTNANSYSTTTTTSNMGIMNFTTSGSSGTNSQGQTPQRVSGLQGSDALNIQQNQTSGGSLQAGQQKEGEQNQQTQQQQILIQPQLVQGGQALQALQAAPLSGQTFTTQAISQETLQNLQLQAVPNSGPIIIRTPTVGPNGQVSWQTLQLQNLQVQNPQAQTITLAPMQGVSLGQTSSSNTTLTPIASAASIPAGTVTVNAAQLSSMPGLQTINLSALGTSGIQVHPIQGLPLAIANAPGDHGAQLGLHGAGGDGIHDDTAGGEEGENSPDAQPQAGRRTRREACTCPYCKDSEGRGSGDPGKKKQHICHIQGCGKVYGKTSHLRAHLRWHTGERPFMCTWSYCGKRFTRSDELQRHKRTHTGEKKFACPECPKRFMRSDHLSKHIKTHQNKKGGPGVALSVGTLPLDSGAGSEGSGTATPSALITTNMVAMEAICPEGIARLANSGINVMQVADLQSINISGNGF

B1: Sp-1 probe (ER alpha promoter) (dsDNA)
DNA 1: TCGTGCGCCCCCGCCCCCTGGCCGTG
DNA 2: CACGGCCAGGGGGCGGGGGCGCACGA
  binding result: binds
